Reference: the supplement of paper PMC12855868

B1: library; numbered along this chain (parent)
chain: MAAAGGARLLRAASAVLGGPAGRWLHHAGSRAGSSGLLRNRGPGGSAEASRSLSVSARARSSSEDKITVHFINRDGETLTTKGKVGDSLLDVVVENNLDIDGFGACEGTLACSTCHLIFEDHIYEKLDAITDEENDMLDLAYGLTDRSRLGCQICLTKSMDNMTVRVPETVADARQSIDVGKTS

Variants of: B1
Experiment: scaled log2 fold change in cell abundance, elesclomol vs control (0 = silent mean, 1 = nonsense mean) (scaled log2 ratio); higher = higher viability under elesclomol (loss of FDX1 cuproptosis function)
Details: glucose 10 mM
[1] = with ABC1 FDX1 KO, elesclomol 5 nM, 14 days
[2] = with HEK293T FDX1 KO, elesclomol 40 nM, 11 days
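Further: variant abundance is its share of total variant reads in each endpoint sample, from next-generation sequencing of the integrated ORF PCR-amplified out of genomic DNA.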

Variant: T157S
- scaled log2 fold change [1]: 0.365
- scaled log2 fold change [2]: 0.742

Variant: T157Q
- scaled log2 fold change [1]: 0.0955
- scaled log2 fold change [2]: 1.04

Variant: T157P
- scaled log2 fold change [1]: 0.927
- scaled log2 fold change [2]: 0.296

Variant: T157M
- scaled log2 fold change [1]: 0.046
- scaled log2 fold change [2]: 0.00875

Variant: T157E
- scaled log2 fold change [1]: 0.0855
- scaled log2 fold change [2]: -0.0584

Variant: T157R
- scaled log2 fold change [1]: 0.294
- scaled log2 fold change [2]: 0.0556

Variant: T157G
- scaled log2 fold change [1]: -0.366
- scaled log2 fold change [2]: 0.895

Variant: T157H
- scaled log2 fold change [1]: -0.268
- scaled log2 fold change [2]: -0.000268

Variant: T157N
- scaled log2 fold change [1]: -0.181

Variant: T157I
- scaled log2 fold change [1]: -0.909
- scaled log2 fold change [2]: -0.784

Variant: T157L
- scaled log2 fold change [1]: -0.0209
- scaled log2 fold change [2]: -0.588

Variant: T157C
- scaled log2 fold change [1]: 0.0208
- scaled log2 fold change [2]: 0.206

Variant: T157Y
- scaled log2 fold change [1]: 0.175
- scaled log2 fold change [2]: -0.241

Variant: T157V
- scaled log2 fold change [1]: -0.108
- scaled log2 fold change [2]: -0.969

Variant: T157D
- scaled log2 fold change [1]: 0.102
- scaled log2 fold change [2]: -0.275

Variant: T157K
- scaled log2 fold change [1]: 0.0573
- scaled log2 fold change [2]: -0.19

Variant: T157A
- scaled log2 fold change [1]: 0.304
- scaled log2 fold change [2]: 0.871

Variant: T157F
- scaled log2 fold change [1]: 0.0938
- scaled log2 fold change [2]: 0.986

Variant: S159E
- scaled log2 fold change [1]: -0.499
- scaled log2 fold change [2]: -0.34

Variant: S159P
- scaled log2 fold change [1]: -1.13
- scaled log2 fold change [2]: -0.284

Variant: S159G
- scaled log2 fold change [1]: -1.03
- scaled log2 fold change [2]: -0.767

Variant: S159D
- scaled log2 fold change [1]: -1.07
- scaled log2 fold change [2]: -0.414

Variant: S159N
- scaled log2 fold change [1]: 0.273
- scaled log2 fold change [2]: -0.128

Variant: S159L
- scaled log2 fold change [1]: -0.241
- scaled log2 fold change [2]: 0.847

Variant: S159C
- scaled log2 fold change [1]: 0.095
- scaled log2 fold change [2]: -0.0429

Variant: S159F
- scaled log2 fold change [1]: -0.798
- scaled log2 fold change [2]: 0.523

Variant: S159K
- scaled log2 fold change [1]: 0.382
- scaled log2 fold change [2]: -0.162

Variant: S159I
- scaled log2 fold change [1]: -0.459
- scaled log2 fold change [2]: 0.0583

Variant: S159A
- scaled log2 fold change [1]: 0.168
- scaled log2 fold change [2]: -0.0471

Variant: S159M
- scaled log2 fold change [1]: -0.149
- scaled log2 fold change [2]: -0.209

Variant: S159H
- scaled log2 fold change [1]: -0.58
- scaled log2 fold change [2]: 0.214

Variant: I154G
- scaled log2 fold change [1]: 1.1
- scaled log2 fold change [2]: 1.27

Variant: I154D
- scaled log2 fold change [1]: 1.18
- scaled log2 fold change [2]: 1.22

Variant: I154K
- scaled log2 fold change [1]: 0.995
- scaled log2 fold change [2]: 0.727

Variant: I154F
- scaled log2 fold change [1]: 0.839
- scaled log2 fold change [2]: 0.781

Variant: I154M
- scaled log2 fold change [1]: 0.363
- scaled log2 fold change [2]: 0.583

Variant: I154W
- scaled log2 fold change [1]: 0.968
- scaled log2 fold change [2]: 0.877

Variant: I154H
- scaled log2 fold change [1]: 0.392
- scaled log2 fold change [2]: 0.163

Variant: I154E
- scaled log2 fold change [1]: 1.05
- scaled log2 fold change [2]: 0.819

Variant: I154T
- scaled log2 fold change [1]: -0.043
- scaled log2 fold change [2]: -0.257

Variant: I154A
- scaled log2 fold change [1]: 0.161
- scaled log2 fold change [2]: 0.851

Variant: I154Y
- scaled log2 fold change [1]: 0.82
- scaled log2 fold change [2]: 0.121

Variant: I154Q
- scaled log2 fold change [1]: 0.399
- scaled log2 fold change [2]: 0.268

Variant: I154C
- scaled log2 fold change [1]: -0.101
- scaled log2 fold change [2]: 0.0571

Variant: I154N
- scaled log2 fold change [1]: 0.748
- scaled log2 fold change [2]: 0.148

Variant: I154L
- scaled log2 fold change [1]: 0.117
- scaled log2 fold change [2]: 0.0996

Variant: I154S
- scaled log2 fold change [1]: 0.481
- scaled log2 fold change [2]: 0.0924

Variant: I154P
- scaled log2 fold change [1]: 1.04
- scaled log2 fold change [2]: 0.814

Variant: I154V
- scaled log2 fold change [1]: -0.0239
- scaled log2 fold change [2]: -1.6

Variant: I154R
- scaled log2 fold change [1]: 1.01
- scaled log2 fold change [2]: 0.787

Variant: C155I
- scaled log2 fold change [1]: 0.0211
- scaled log2 fold change [2]: -0.117

Variant: C155Q
- scaled log2 fold change [1]: 0.507

Variant: C155A
- scaled log2 fold change [1]: -0.331
- scaled log2 fold change [2]: -0.584

Variant: C155G
- scaled log2 fold change [1]: -0.0608
- scaled log2 fold change [2]: -0.601

Variant: C155H
- scaled log2 fold change [1]: -1.03
- scaled log2 fold change [2]: -0.48

Variant: C155V
- scaled log2 fold change [1]: -0.17
- scaled log2 fold change [2]: -0.185

Variant: C155N
- scaled log2 fold change [1]: -0.0685

Variant: C155L
- scaled log2 fold change [1]: 0.0756
- scaled log2 fold change [2]: -0.359

Variant: C155K
- scaled log2 fold change [1]: -0.165
- scaled log2 fold change [2]: 6.73e-05

Variant: C155R
- scaled log2 fold change [1]: -0.248
- scaled log2 fold change [2]: -1.26

Variant: C155M
- scaled log2 fold change [1]: 0.338
- scaled log2 fold change [2]: 0.969

Variant: C155Y
- scaled log2 fold change [1]: -0.378
- scaled log2 fold change [2]: -0.939

Variant: C155D
- scaled log2 fold change [1]: 0.24
- scaled log2 fold change [2]: -1.76

Variant: C155F
- scaled log2 fold change [1]: -0.0473
- scaled log2 fold change [2]: -0.0932

Variant: C155E
- scaled log2 fold change [1]: -0.828
- scaled log2 fold change [2]: -0.236

Variant: C155W
- scaled log2 fold change [1]: -0.0475
- scaled log2 fold change [2]: 0.246

Variant: C155T
- scaled log2 fold change [1]: -0.251
- scaled log2 fold change [2]: -0.435

Variant: C155S
- scaled log2 fold change [1]: 0.114
- scaled log2 fold change [2]: -0.635

Variant: C155P
- scaled log2 fold change [1]: 0.0631
- scaled log2 fold change [2]: 0.21

Variant: K158N
- scaled log2 fold change [1]: -0.716
- scaled log2 fold change [2]: -0.562

Variant: K158H
- scaled log2 fold change [1]: 0.174
- scaled log2 fold change [2]: -0.704

Variant: K158Q
- scaled log2 fold change [1]: -0.363
- scaled log2 fold change [2]: -0.446

Variant: K158Y
- scaled log2 fold change [1]: 0.0178
- scaled log2 fold change [2]: -1.33

Variant: K158R
- scaled log2 fold change [1]: 0.0874
- scaled log2 fold change [2]: -0.484

Variant: K158T
- scaled log2 fold change [1]: -0.0261
- scaled log2 fold change [2]: 0.646

Variant: K158G
- scaled log2 fold change [1]: -0.426
- scaled log2 fold change [2]: -0.842

Variant: K158E
- scaled log2 fold change [1]: -0.265
- scaled log2 fold change [2]: 0.159

Variant: K158L
- scaled log2 fold change [1]: 0.172
- scaled log2 fold change [2]: -0.122

Variant: K158D
- scaled log2 fold change [1]: 0.233
- scaled log2 fold change [2]: 0.95

Variant: K158V
- scaled log2 fold change [1]: 0.0943
- scaled log2 fold change [2]: -0.343

Variant: K158P
- scaled log2 fold change [1]: 0.0465
- scaled log2 fold change [2]: 0.515

Variant: K158I
- scaled log2 fold change [1]: -0.0888
- scaled log2 fold change [2]: -0.515

Variant: K158A
- scaled log2 fold change [1]: -0.146
- scaled log2 fold change [2]: 0.138

Variant: K158W
- scaled log2 fold change [1]: 0.161
- scaled log2 fold change [2]: -0.562

Variant: K158S
- scaled log2 fold change [1]: 0.23
- scaled log2 fold change [2]: -0.645

Variant: K158C
- scaled log2 fold change [1]: 0.225
- scaled log2 fold change [2]: 0.192

Variant: K158F
- scaled log2 fold change [1]: 0.241
- scaled log2 fold change [2]: 0.189

Variant: K158M
- scaled log2 fold change [1]: 0.185
- scaled log2 fold change [2]: -0.505

Variant: L156S
- scaled log2 fold change [1]: 0.388
- scaled log2 fold change [2]: 0.852

Variant: L156T
- scaled log2 fold change [1]: 0.139
- scaled log2 fold change [2]: 0.0718

Variant: L156K
- scaled log2 fold change [1]: 1.05
- scaled log2 fold change [2]: 1.71

Variant: L156Y
- scaled log2 fold change [1]: 1.07
- scaled log2 fold change [2]: 0.941

Variant: L156F
- scaled log2 fold change [1]: 0.599
- scaled log2 fold change [2]: -0.036

Variant: L156V
- scaled log2 fold change [1]: -0.38
- scaled log2 fold change [2]: 0.664

Variant: L156A
- scaled log2 fold change [1]: 0.194
- scaled log2 fold change [2]: -1

Variant: L156R
- scaled log2 fold change [1]: 1.06
- scaled log2 fold change [2]: 1.1

Variant: L156I
- scaled log2 fold change [1]: -0.0958
- scaled log2 fold change [2]: -0.948

Variant: L156P
- scaled log2 fold change [1]: 0.268
- scaled log2 fold change [2]: 0.446

Variant: L156Q
- scaled log2 fold change [1]: 0.697
- scaled log2 fold change [2]: 0.562

Variant: L156W
- scaled log2 fold change [1]: 1.06
- scaled log2 fold change [2]: 1.36

Variant: L156C
- scaled log2 fold change [1]: 0.353
- scaled log2 fold change [2]: 0.332

Variant: L156M
- scaled log2 fold change [1]: -0.318
- scaled log2 fold change [2]: -0.383

Variant: L156G
- scaled log2 fold change [1]: 0.709
- scaled log2 fold change [2]: 0.904

Variant: L156D
- scaled log2 fold change [1]: 1.12
- scaled log2 fold change [2]: 0.926

Variant: L156N
- scaled log2 fold change [1]: 0.8
- scaled log2 fold change [2]: 0.347

Variant: L156H
- scaled log2 fold change [1]: 1.07
- scaled log2 fold change [2]: 1.03

Variant: L156E
- scaled log2 fold change [1]: 1.11
- scaled log2 fold change [2]: 1.53

Variant: Q153T
- scaled log2 fold change [1]: 0.212
- scaled log2 fold change [2]: -0.179

Variant: Q153V
- scaled log2 fold change [1]: -0.0289
- scaled log2 fold change [2]: 0.299

Variant: Q153S
- scaled log2 fold change [1]: 0.243
- scaled log2 fold change [2]: 0.372

Variant: Q153Y
- scaled log2 fold change [1]: 0.621
- scaled log2 fold change [2]: 0.0427

Variant: Q153P
- scaled log2 fold change [1]: 0.884
- scaled log2 fold change [2]: 0.923

Variant: Q153M
- scaled log2 fold change [1]: -0.153
- scaled log2 fold change [2]: -0.595

Variant: Q153L
- scaled log2 fold change [1]: 0.241
- scaled log2 fold change [2]: -0.00657

Variant: Q153W
- scaled log2 fold change [1]: 0.543
- scaled log2 fold change [2]: 0.414

Variant: Q153N
- scaled log2 fold change [1]: -0.0628
- scaled log2 fold change [2]: 0.314

Variant: Q153R
- scaled log2 fold change [1]: -0.0672
- scaled log2 fold change [2]: 1.14
